Assay results published in PMC7588053, “Cholesterol oxidase from Rhodococcus erythropolis with high specificity toward β-cholestanol and pytosterols” (PLoS ONE, 2020).

Substrate: CC(C)CCC[C@@H](C)[C@H]1CC[C@H]2[C@@H]3CC=C4C[C@@H](O)CC[C@]4(C)[C@H]3CC[C@]12C
Experiment: purified protein
Assay type: biochemical, Rhodococcus erythropolis
Details: O2 as co-substrate, 0-1 mM cholesterol, 50 mM sodium phosphate pH 7.0, 64 mM sodium cholate, 0.34% Triton X-100, 30°C

B1: ChoRI (Rhodococcus erythropolis PR4) (protein)
chain: VPAGSSGSAGGPVSTLTPPPAFPEGIALYQQAYQNWSKEIMLDAIWTCSPKTPEDVVRLANWGHANGYTIRPRGAMHGWTPLTIVNGAPVDKVILADTTVHLTGVSVNAGGSPATVTAGPGATLDAITTALQAQGLGFANLPAPGVLTIAGCLAVDAHGAALPAEGEAHVPGQTFGSLSNLVTSLTAVVWNGSEYALETYARSDAAIKPLLTHLGRTFLTSVTLQAAPNYRMRCVSHTDIGWQELFGARGASGRTFEKFVRENGRAEAIWYPFTERPWMKVWSLAPTKPPFSREVTGPYNYIFSDNLPEPVTDMIGQINAGNPGIAPAFGQIMYATTVAGLAATFSNDLWGWSKDVQFYIRATTLRLTEGGGAVITSRANIGQVIHDFTQWFNGRMEYYRSIGQFPLNGPVEIRCCGLDQPSDVEVDSAGAPTISAMRPRPDHPEWDTAIWLNVLGVPGTPGMFAFYREMEQWMRNHYNNNDATFRPEWSKGWAFGPDKPYTDAPIITQGLPQTYRDGVPSSDNWDTANAAYNALDPHKVFSNTFLDQLLP
notes: predicted mature enzyme, Tat signal peptide removed (from Val-37), C-terminal 6xHis kept, pET-21b(+), E. coli Rosetta (DE3) pLysS; precursor 587 aa, mature 551 aa, 59,590 Da; VAO family flavoenzyme (FAD)
- Km: 22.6 ± 0.5 µM
- Vmax: 6.4 µmol/min/mg
- kcat: 6.8 ± 0.3 s⁻¹
- kcat/Km: 300000 ± 10000 M⁻¹ s⁻¹

B2: ChoRII (Rhodococcus erythropolis PR4) (protein)
chain: VPWGSASTIAPPPGFPSDIPLSQQAYANWSREIMLESVWTATARHSDDVVTLANWAFDNGYTVRAKGTMHGWSPLTVVPGAPSDRVLLVDTMANLNSVVVQHGTPATVTAGAGASIEAILTALEREGLGWANAPAIGELSIAGALAIGAHGATYPAVGETITPGQSYGSLSNLITEITVVAWDEGRNRYGLKTFHRSDDEITAFLTHLGRTFVTSVTLQAGENYRLRCRSFTDIPWQELFAAPGSPGRTYESFVEKSGRVEAIWFPFTQTPWLKVWTPTPVKPPESREVSGPYNYFFSDAIPEEVTTPLGMVAQGLQAATPLFGASQFGAVAAGLALTDTDDLWGWSKDVLFYLRHTTLRVVAGGGAVITKRSNIGRVVHEMTSWLNERMTHYASLGQYPVNMPFEVRLCGVDDSGEVLVDSAGVPDLSAVRPRADRQDWDTAIWMNVVSIPGTAGLPAFLREMERWMVANYSGDYATFRPEWSKGWAFTDQAAYQDDEFLTSTVPATFRAGGDGNWDFALATLDEHDPHRVFSNTFIDRVLPPS
notes: predicted mature enzyme, Tat signal peptide removed (Val-45 given, but 545 aa given would mean start at 44), C-terminal 6xHis kept, pET-21b(+), E. coli Rosetta (DE3) pLysS; precursor 588 aa, mature 59,369 Da; VAO family flavoenzyme (FAD)
- Km: 22.1 ± 0.3 µM
- Vmax: 0.57 µmol/min/mg
- kcat: 0.61 ± 0.11 s⁻¹
- kcat/Km: 30000 ± 10000 M⁻¹ s⁻¹
